Experimental data reported in article PMC2756588.

T1: Bzz1-1, P38822
T1 sequence (P38822 478-572, looked up): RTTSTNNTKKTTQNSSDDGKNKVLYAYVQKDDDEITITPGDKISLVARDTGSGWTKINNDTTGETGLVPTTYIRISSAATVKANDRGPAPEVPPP

T2: Pin3, Q06449
T2 sequence (Q06449 53-122, looked up): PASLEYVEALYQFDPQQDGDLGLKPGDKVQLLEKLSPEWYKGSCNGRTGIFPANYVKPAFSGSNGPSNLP

T3: Cyk3, Q07533
T3 sequence (Q07533 1-83, looked up): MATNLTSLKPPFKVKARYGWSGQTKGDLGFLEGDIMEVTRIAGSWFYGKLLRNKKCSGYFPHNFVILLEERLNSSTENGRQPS

T4: Fus1, P11710
T4 sequence (P11710 432-512, looked up): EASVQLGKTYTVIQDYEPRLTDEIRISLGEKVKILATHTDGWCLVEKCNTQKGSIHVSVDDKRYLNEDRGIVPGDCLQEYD

T5: Bbc1, P47068
T5 sequence (P47068 1-78, looked up): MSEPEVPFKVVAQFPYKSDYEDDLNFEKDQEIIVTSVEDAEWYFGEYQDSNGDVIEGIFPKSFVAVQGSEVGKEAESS

T6: Pex13, P80667
T6 sequence (P80667 295-386, looked up): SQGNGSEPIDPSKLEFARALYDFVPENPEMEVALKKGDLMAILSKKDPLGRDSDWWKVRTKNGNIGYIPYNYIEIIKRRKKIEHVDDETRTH

T7: Lsb3, P43603
T7 sequence (P43603 385-451, looked up): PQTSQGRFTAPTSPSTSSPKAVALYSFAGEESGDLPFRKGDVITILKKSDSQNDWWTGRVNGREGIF

T8: Hof1, Q05080
T8 sequence (Q05080 590-669, looked up): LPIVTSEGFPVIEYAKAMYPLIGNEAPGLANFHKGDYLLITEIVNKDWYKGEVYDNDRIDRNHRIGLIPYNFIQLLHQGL

T9: Bzz1-2, P38822
T9 sequence (P38822 568-633, looked up): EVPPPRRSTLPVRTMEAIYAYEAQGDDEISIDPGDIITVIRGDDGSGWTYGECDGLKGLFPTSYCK

T10: Cdc25, P04821
T10 sequence (P04821 50-136, looked up): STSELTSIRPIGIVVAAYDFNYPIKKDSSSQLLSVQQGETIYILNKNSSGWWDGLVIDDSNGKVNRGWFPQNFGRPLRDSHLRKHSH

T11: Abp1, P15891
T11 sequence (P15891 535-592, looked up): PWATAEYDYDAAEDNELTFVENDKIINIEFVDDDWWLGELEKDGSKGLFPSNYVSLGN

T12: Boi1, P38041
T12 sequence (P38041 1-86, looked up): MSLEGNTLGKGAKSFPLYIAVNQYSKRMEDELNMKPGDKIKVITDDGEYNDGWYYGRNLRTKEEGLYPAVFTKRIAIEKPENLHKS

T13: Sla1-2, P32790
T13 sequence (P32790 60-140, looked up): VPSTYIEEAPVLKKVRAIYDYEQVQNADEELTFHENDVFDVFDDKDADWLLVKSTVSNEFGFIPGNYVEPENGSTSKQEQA

T14: Myo5, Q04439
T14 sequence (Q04439 1072-1160, looked up): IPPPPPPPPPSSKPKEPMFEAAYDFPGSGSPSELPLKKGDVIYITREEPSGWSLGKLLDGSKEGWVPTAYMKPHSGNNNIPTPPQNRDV

T15: Hse1, P38753
T15 sequence (P38753 208-285, looked up): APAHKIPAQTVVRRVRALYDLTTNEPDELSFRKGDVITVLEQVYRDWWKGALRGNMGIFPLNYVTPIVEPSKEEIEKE

T16: Lsb4, P32793
T16 sequence (P32793 402-468, looked up): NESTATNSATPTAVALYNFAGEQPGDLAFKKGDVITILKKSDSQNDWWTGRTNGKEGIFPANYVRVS

T17: Nbp2, Q12163
T17 sequence (Q12163 103-180, looked up): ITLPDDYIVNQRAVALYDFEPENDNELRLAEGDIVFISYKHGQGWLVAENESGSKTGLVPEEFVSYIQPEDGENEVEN

T18: Bud14, P27637
T18 sequence (P27637 247-328, looked up): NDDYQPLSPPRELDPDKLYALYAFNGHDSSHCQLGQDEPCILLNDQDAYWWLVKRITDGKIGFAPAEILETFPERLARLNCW

T19: Sla1-3, P32790
T19 sequence (P32790 344-424, looked up): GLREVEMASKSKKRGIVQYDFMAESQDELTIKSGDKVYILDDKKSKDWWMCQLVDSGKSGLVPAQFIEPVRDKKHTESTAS

T20: Lsb1, P53281
T20 sequence (P53281 45-122, looked up): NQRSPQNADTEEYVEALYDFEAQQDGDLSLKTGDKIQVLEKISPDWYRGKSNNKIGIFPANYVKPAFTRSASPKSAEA

T21: Boi2, P39969
T21 sequence (P39969 32-116, looked up): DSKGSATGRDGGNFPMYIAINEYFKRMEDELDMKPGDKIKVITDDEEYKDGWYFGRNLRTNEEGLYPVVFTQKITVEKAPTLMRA


Experiments:
Experiment in all cases: SPOT array
[1] = biological target: Myo3, P36006; conditions: median of control spots 468
[2] = biological target: T1, Bzz1-1, P38822; conditions: median of control spots 4446
[3] = biological target: T2, Pin3, Q06449; conditions: median of control spots 2171
[4] = biological target: Sho1, P40073; conditions: median of control spots 1148
[5] = biological target: Bem1-1, P29366; conditions: median of control spots 4282
[6] = biological target: T3, Cyk3, Q07533; conditions: median of control spots 1451
[7] = biological target: T4, Fus1, P11710; conditions: median of control spots 1200
[8] = biological target: T5, Bbc1, P47068; conditions: median of control spots 796
[9] = biological target: T6, Pex13, P80667; conditions: median of control spots 1341
[10] = biological target: T7, Lsb3, P43603; conditions: median of control spots 406
[11] = biological target: T8, Hof1, Q05080; conditions: median of control spots 4086
[12] = biological target: T9, Bzz1-2, P38822; conditions: median of control spots 4538
[13] = biological target: T10, Cdc25, P04821; conditions: median of control spots 969
[14] = biological target: Bem1-2, P29366; conditions: median of control spots 4347
[15] = biological target: T11, Abp1, P15891; conditions: median of control spots 935
[16] = biological target: T12, Boi1, P38041; conditions: median of control spots 1162
[17] = biological target: T13, Sla1-2, P32790; conditions: median of control spots 712
[18] = biological target: T14, Myo5, Q04439; conditions: median of control spots 471
[19] = biological target: T15, Hse1, P38753; conditions: median of control spots 1727
[20] = biological target: T16, Lsb4, P32793; conditions: median of control spots 397
[21] = biological target: T17, Nbp2, Q12163; conditions: median of control spots 357
[22] = biological target: T18, Bud14, P27637; conditions: median of control spots 956
[23] = biological target: T19, Sla1-3, P32790; conditions: median of control spots 5475
[24] = biological target: GST; conditions: median of control spots 978
[25] = biological target: Rvs167, P39743; conditions: median of control spots 2707
[26] = biological target: T20, Lsb1, P53281; conditions: median of control spots 388
[27] = biological target: T21, Boi2, P39969; conditions: median of control spots 1161

Sequence of Bem1-2, P29366 (P29366 139-227): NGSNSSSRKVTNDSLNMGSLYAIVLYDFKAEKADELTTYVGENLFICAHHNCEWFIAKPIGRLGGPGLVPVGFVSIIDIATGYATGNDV
Sequence of Bem1-1, P29366 (P29366 55-141): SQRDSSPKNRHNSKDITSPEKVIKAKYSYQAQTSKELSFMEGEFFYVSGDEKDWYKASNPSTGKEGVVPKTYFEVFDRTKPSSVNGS
Sequence of Sho1, P40073 (P40073 287-367): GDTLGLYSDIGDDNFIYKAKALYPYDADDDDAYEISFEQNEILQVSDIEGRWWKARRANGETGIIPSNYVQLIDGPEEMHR
Sequence of Rvs167, P39743 (P39743 419-482): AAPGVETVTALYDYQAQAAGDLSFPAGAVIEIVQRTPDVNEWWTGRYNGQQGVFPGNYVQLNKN

| Binder | SPOT intensity [1] | SPOT intensity [2] | SPOT intensity [3] | SPOT intensity [4] | SPOT intensity [5] | SPOT intensity [6] | SPOT intensity [7] | SPOT intensity [8] | SPOT intensity [9] | SPOT intensity [10] | SPOT intensity [11] | SPOT intensity [12] | SPOT intensity [13] | SPOT intensity [14] | SPOT intensity [15] | SPOT intensity [16] | SPOT intensity [17] | SPOT intensity [18] | SPOT intensity [19] | SPOT intensity [20] | further results |
| --- | --- | --- | --- | --- | --- | --- | --- | --- | --- | --- | --- | --- | --- | --- | --- | --- | --- | --- | --- | --- | --- |
| ISRRRLPVIMHRLKM | 7 | 0 | 27 | 112 | 0 | 0 | 15 | 26 | 22 | 2 | 9 | 5 | 51 | 16 | 90 | 1 | 1 | 2 | 17 | 21 | SPOT intensity [21]: 5; SPOT intensity [22]: 2; SPOT intensity [23]: 20; SPOT intensity [24]: 0; SPOT intensity [25]: 21; SPOT intensity [26]: 137; SPOT intensity [27]: 1 |
| LRIKRKPVQTFFEFI | 8 | 0 | 5 | 173 | 1 | 1 | 16 | 54 | 13 | 0 | 7 | 0 | 271 | 4 | 102 | 11 | 0 | 0 | 25 | 12 | SPOT intensity [21]: 46; SPOT intensity [22]: 17; SPOT intensity [23]: 9; SPOT intensity [24]: 1; SPOT intensity [25]: 2; SPOT intensity [26]: 4; SPOT intensity [27]: 1 |
| VRVKKRPLIRPLNSS | 8 | 1 | 1 | 188 | 0 | 2 | 6 | 201 | 4 | 6 | 0 | 11 | 127 | 0 | 301 | 2 | 2 | 1 | 14 | 16 | SPOT intensity [21]: 9; SPOT intensity [22]: 16; SPOT intensity [23]: 22; SPOT intensity [24]: 1; SPOT intensity [25]: 7; SPOT intensity [26]: 9; SPOT intensity [27]: 3 |
